Experiments:
Type in all cases: cell-based, rat
cardiac fibroblasts [1] = experiment: Western analysis of signaling pathways activated by CT-1 in cardiac fibroblasts; conditions: cardiac fibroblasts incubated with CT-1
Procedure: Fibroblasts were isolated from the hearts of 200-250 g adult male Sprague-Dawley rats as previously described (Hao et al., 2000, Am J Physiol Heart Circ Physiol 279: H3020-H3030). Briefly, hearts were subjected to Langendorff perfusion at 37° C. with Joklik's medium containing 0.1% collagenase (Worthington Biochemical Corporation, Lakewood, N.J.) for 20-25 minutes. Collagenase was neutralized by addition of an equal volume of DMEM/F12 medium containing 10% FBS and liberated cells were collected by centrifugation at 500×g for 5 minutes. Cells were resuspended in fresh DMEM/F12 containing 10% FBS and plated on 75 cm^2 culture flasks at 37° C. with 5% CO2 for 3 hours. Non adherent cells (myocytes) were removed by changing the culture media and adherent cells (mainly fibroblasts) were incubated in DMEM/F12 containing 10% FBS, 100 U/mL penicillin, 100 μg/mL streptomycin, and 100 μM ascorbate. Fibroblasts were used for experiments after the second passage and the purity of these cells was ≧95%, using routine phenotyping methods as previously described (Peterson et al., 1999, Cardiovasc Res 41: 575-585). […] Cells were rendered quiescent by incubation in serum-free medium for 24 hours then stimulated with CT-1 for specified times and lysed in RIPA buffer (150 mM NaCl, 1% Triton X-100, 0.5% deoxycholate, 0.1% SDS, 50 mM Tris) with 1× protease inhibitor cocktail (Sigma-Aldrich, Oakville, Ontario) and 10 mM NaF, 1 mM Na3VO4 and 1 mM EGTA.
Protein concentrations of tissue and cell lysates were determined by the BCA method (Smith et al., 1985, Anal Biochem 150: 76-85). Proteins were separated by 8-12% SDS-PAGE and transferred to PVDF membrane (Roche, Indianapolis, Ind.) for 1 hour at 300 mA for small proteins or for 2 hours at 500 mA for proteins greater than 100 kDa. Membranes were blocked with 5% non-fat skim milk in tris-buffered saline containing 0.2% Tween 20 (TBST). […] Band intensity was quantified using a CCD camera imaging densitometer (GS670, Bio-Rad Laboratories (Canada) Ltd. Mississauga, Ontario). […]

cardiac fibroblasts [2] = experiment: 3H-thymidine incorporation (DNA synthesis) proliferation assay
Procedure: DNA synthesis was measured by uptake of ^3H-thymidine as previously described (Saward and Zahradka, 1997, Mol Cell Biochem 176: 53-59) with modification. Briefly, 2.5×10^4 cells (counted with a hemacytometer) in DMEM/F12 with 10% FBS were loaded into each well of 24-well culture plates, allowed to attach overnight and rendered quiescent in serum-free DMEM with 100 μM ascorbate for 24 hours. S-phase re-entry in response to CT-1 was measured in two ways: pulse labeling with ^3H-thymidine for 30 minutes every 6 hours, or labeling for the last 30 minutes of 6 or 12 hour incubation. DNA in cell lysate was precipitated with cold 20% trichloroacetic acid (TCA) and filtered through GF/A filters (Fisher). Beta emission from the dried filers was measured with Cytoscint scintillation fluid (ICN Pharmaceuticals, Costa Mesa, Calif.) and a scintillation counter (LS6500, Beckman Coulter, Fullerton, Calif.).

cardiac fibroblasts [3] = experiment: Western analysis of cell cycle regulatory proteins (cyclins, Rb)
Procedure: (§1) Protein concentrations of tissue and cell lysates were determined by the BCA method (Smith et al., 1985, Anal Biochem 150: 76-85). Proteins were separated by 8-12% SDS-PAGE and transferred to PVDF membrane (Roche, Indianapolis, Ind.) for 1 hour at 300 mA for small proteins or for 2 hours at 500 mA for proteins greater than 100 kDa. Membranes were blocked with 5% non-fat skim milk in tris-buffered saline containing 0.2% Tween 20 (TBST). Proteins were visualized with ECL Plus (Amersham) after probing with primary and secondary antibodies. Band intensity was quantified using a CCD camera imaging densitometer (GS670, Bio-Rad Laboratories (Canada) Ltd. Mississauga, Ontario).
Cardiac fibroblasts were isolated from the ventricles of rats and incubated with CT-1 for specified times and at specified concentrations. […] Addition of CT-1 results in S-phase re-entry within 6 hours of stimulation (FIG. 7). […] (FIG. 8). […] To determine the effect of CT-1 on cell cycle regulatory proteins, we incubated cardiac fibroblasts with CT-1 and lysed them at specified times. […] To determine if increased DNA synthesis was accompanied by an increase in cell number, we repeated the experiments in the absence of ^3H-thymidine, detached the cells from the plates and counted the total number of cells.

cardiac fibroblasts [4] = experiment: Cell counting (Coulter counter); conditions: CT-1 for 24 hours
Procedure: To determine absolute cell numbers after stimulation with CT-1, the total number of cells were counted. Equal numbers of cells were loaded into each well of 24 well plates and incubated with CT-1 for 24 hours. The cells were detached with trypsin, diluted in filtered phosphate buffered saline, and counted with Model ZM Coulter cell counter (Beckman Coulter, Fullerton, Calif.).

cardiac fibroblasts [5] = experiment: Western analysis of phosphorylation of translational regulatory proteins; conditions: stimulation with CT-1
Procedure: as §1
To determine the effect of CT-1 on protein synthesis in cardiac fibroblasts we measured incorporation of ^3H-labeled leucine. […] Since the activity of translational regulatory proteins is modified by phosphorylation, we used phospho-specific antibodies to determine if CT-1 directly influenced the activity of these regulatory proteins.
We then determined the effect of pharmacologic inhibitors on the activation of this signaling cascade.

cardiac fibroblasts [6] = experiment: Wounded monolayer model, cortactin immunostaining; conditions: 4 hours after creation of the wound
Procedure: Cardiac fibroblasts were seeded onto coverslips in 6-well dishes and allowed to proliferate. Once the cells were near confluency, they were serum deprived for 24 hours. A scrape was made down the middle of the coverslip with the blunt end of a 1 ml syringe and the media was changed again. Cells were further incubated in the presence or absence of CT-1 and inhibitors at specified concentrations for specified times. The cells were then subjected to immunofluorescence staining as described herein.

B1: cardiotrophin-1 (protein, UniProt Q16619 1-201, looked up)
Cardiotrophin-1: MSRREGSLEDPQTDSSVSLLPHLEAKIRQTHSLAHLLTKYAEQLLQEYVQLQGDPFGLPSFSPPRLPVAGLSAPAPSHAGLPVHERLRLDAAALAALPPLLDAVCRRQAELNPRAPRLLRRLEDAARQARALGAAVEALLAALGAANRGPRAEPPAATASAASATGVFPAKVLGLRVCGLYREWLSRTEGDLGQLLPGGSA
notes: gp130 signaling cytokine of the LIF or IL-6 superfamily; 201 amino acids as a mature protein, 21.5 kDa
phosphorylation of gp130, Jak1, Jak2, STAT3, STAT1 (cardiac fibroblasts [1]): resulted in phosphorylation
phosphorylation of p42/44 MAPK, p38 MAPK, JNK and Src (cardiac fibroblasts [1]): observed phosphorylation
Phosphorylation of STAT5 or STAT6 (cardiac fibroblasts [1]; data not shown): not observed
CT-1 dose of peak 3H thymidine incorporation (maximal DNA synthesis) (cardiac fibroblasts [2]; 6 or 12 hours incubation): 10 to 20 ng/mL
lowest CT-1 concentration with elevated incorporation of 3H thymidine (cardiac fibroblasts [2]; 6 or 12 hours incubation): 1 ng/mL
pathway dependence of CT-1 induced cell proliferation (DNA synthesis) (cardiac fibroblasts [2]; pretreatment with inhibitors, CT-1 10 ng/mL for 12 hours): dependent on Jak, P13-K, MAPK, and Src kinases
time to S-phase re-entry after addition of CT-1 (cardiac fibroblasts [2]; quiescent cells, 10 ng/mL CT-1, 3H-thymidine pulse labeling): ≤ 6 h
phosphorylation of the retinoblastoma protein (cardiac fibroblasts [3]; Rb pS795, pS807/811): hyperphosphorylation
expression of cyclins (cardiac fibroblasts [3]; cyclins A, E, CT-1 for specified times): increase in expression of cyclins
total cell number (cardiac fibroblasts [4]): increase in total cell number
phosphorylation of Akt T308/S473, p70 S6 kinase T389 and S421/T424, Mnk1, eIF4E, 4E-BP1 and S6 ribosomal protein (cardiac fibroblasts [5]): induced an increase in phosphorylation
localization of cortactin (cardiac fibroblasts [6]): at the leading edge of lamellipodia
